In patent US11155612B2, “vNAR antibody which binds VEGF for use in dogs or cats” (CENTRO DE INVESTIGACIÓN CIENTÍFICA Y DE EDUCACIÓN SUPERIOR …, priority 2017, dated 2021):
Residue numbers refer to the chain shown, from its start. In names and notes the source's numbering stands.

T1: VEGF165 (Homo sapiens, UniProt P15692)
T1 sequence (P15692 27-191 isoform P15692-4): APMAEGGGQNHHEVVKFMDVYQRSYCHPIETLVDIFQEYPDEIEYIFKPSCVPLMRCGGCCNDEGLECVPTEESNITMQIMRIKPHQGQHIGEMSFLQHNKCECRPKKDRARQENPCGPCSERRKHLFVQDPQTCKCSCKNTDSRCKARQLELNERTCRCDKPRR

B1: P98Y: anti-VEGF vNAR protein, P98Y mutation in CDR3 of parental V13; corresponds to SEQ ID NO:1 (protein)
chain: ASLDQTPRTATRETGESLSINCVLTDTSHILFGTKWLWNNPGSTDWESITIGGRYAESVNNQAKSFSLQIKDLTVEDSGTYYCKAQTIGRRKNLLPRYLVNGIAAMGYSSSDYDGAGTVLTVN
modifications: Artificial sequence against VEGF, with single mutation in the CDR3 region from a parenteral vNAR sequence.
B2: R97A: anti-VEGF vNAR mutant, R97A mutation in CDR3 of parental V13 (protein)
chain: B1 chain with R97A, Y98P

Assays:
[1] = biological target: T1, VEGF165; test: ELISA test recognition; format: binding; details: ELISA plates coated with VEGF165; compared with parental V13
Experimental: Decreasing concentrations of each vNAR were added to measure the recognition of VEGF compared to V13, which is the parental antibody.
ELISA plates were coated with the same amount of VEGF165; then, the wells were blocked with 3% BSA, several dilutions of clones P98Y and R97A, and the parental sequence (V13) were added.

[2] = system: human umbilical vein endothelial cells (HUVEC) expressing GFP and normal human dermal fibroblasts (NHDF); test: Angiogenesis assay (vascular tube formation, HUVEC/NHDF co-culture); format: cell-based; details: VEGF 4 ng/ml; vNAR at eight concentrations
Experimental: In the vascular tube formation assay, a co-culture system of human umbilical vein endothelial cells (HUVEC) expressing GFP and normal human dermal fibroblasts (NHDF) was used. For cell seeding on day 0, one cryogenic vial of NHDF cells was thawed and resuspended in 12 ml of complete seeding medium. Then, 100 μl of this solution was added per well of a 96-well plate. The cells were incubated at room temperature for 1 hour. Then, 1 cryogenic vial of HUVECs was thawed and resuspended in 12 ml of complete seeding medium. HUVEC (100 μL per well) were seeded into the same plate as NHDFs. The cells were incubated at room temperature for another hour. The plate was then examined in an IncuCyte ZOOM and scanned using the “FOIL” scan type. After 24 hours, the culture medium was replaced with 150 μl of growth medium.
Forty-eight hours after seeding, the cells were treated with VEGF at 4 ng/ml and the test compounds at eight concentrations.
Serial dilutions of the compounds were prepared using assay media containing VEGF up to the final concentrations in FIG. 3. Then, 150 μl of medium containing the vNARs were added. In untreated wells, media without VEGF were added. For wells without compound, media with VEGF was added. […]
The formation of vessel tubes by fluorescently-labeled HUVECs was measured using live-cell imaging, and the effects of the vNARs on this process were assessed.

[3] = system: Murine Lewis lung cancer cell lines; test: VEGF inhibition in vivo, ND-GFP nude mice with Lewis lung cancer footpad implant; details: for capillary growth around the tumor (vessel density): 27 μg vNAR i.p. twice per week, 6 doses over 18 days, vs untreated controls; for Normalized tumor weight / reduction of the tumor (weight), statistical significance: after day 18, 27 μg vNAR i.p., 6 doses; for Normalized tumor weight: n=8, PBS = 1.0 (100%); for reduction of the tumor (weight), statistical significance: vs PBS
Experimental: In vivo tests were conducted at AntiCancer, Inc. (San Diego, Calif., USA) in accordance with its protocols for handling animals approved under Assurance #A3873-1, and also approved by the Bioethics Committee of the Center for Scientific Research and Higher Education of Ensenada, Baja California (CICESE), approval number 2014/03. In order to minimize the suffering of the animals, anesthesia and analgesics were used for all surgical experiments. Animals were anesthetized by subcutaneous injection of a solution of 0.02 ml of ketamine 20 mg/kg, 15.1 mg/kg xylazine, and 0.48 mg/kg of acepromazine maleate. Animals responses during surgery were monitored to ensure adequate depth of anesthesia. The animals were observed daily and humanely sacrificed through CO2 inhalation when they met the following endpoint criteria: severe tumor burden (more than 20 mm in diameter), prostration, significant body weight loss, difficulty breathing, rotational motion, and body temperature drop. Animals were housed in a barrier facility, on a high-efficiency particulate arrestance-filtered rack under standard conditions of light/dark cycles of 12 hours. Animals were fed an autoclaved laboratory rodent diet. Eight nestin-driven GFP (ND-GFP) mice were used [Amoh Y, Yang M, Li L, Reynoso J, Bouvet M, Moossa A R, Katsuoka K, Hoffman R M. Nestin-driven green fluorescent protein transgenic nude mouse for imaging human tumor angiogenesis. Cancer Res. 2005; 65: 5352-5357], individuals from 6 to 10 weeks old were used per group. ND-GFP mice expressed GFP in nascent blood vessels. Murine Lewis lung cancer cell lines, stably transfected with red fluorescent protein (RFP) were used for implantation of foot cancer cells in the plantar pad (5×10^5 cells in 25 μl). The treatment began 3 days after implantation of cancer cells. All vNARs were administered intraperitoneally (i.p.) twice per week for a total of 6 doses over 18 days; each administration contained 27 μg of VNAR in 180 μl of PBS. After day 18, the implanted footpad of the mice in each group was imaged for GFP-expressing blood vessels. The vessel density was calculated as the total length of the blood vessels divided by the observed area. Each individual tumor was collected and, the weighed (g).

Molecule | recognition of VEGF [1] | inhibition of angiogenesis (tube length and network branching) [2] | capillary growth around the tumor (vessel density) [3] | Normalized tumor weight [3] | reduction of the tumor (weight), statistical significance [3] | reduction of the tumor (weight), statistical significance ([3]; listed as SEQ ID NO:1)
B1 | greater recognition of VEGF than the parental | especially potent inhibitors of angiogenesis | reduced capillary growth around the tumor | 0.71 | statistically significant reduction of the tumor | allows reducing the size of the tumor masses
B2 | – | – | comparable with parental v13 VNAR | 0.76 | – | –
